Literature values in PMC8239176.

Target: KLC1 (Homo sapiens) (UniProt Q07866)
UniProt Q07866, sequence (Q07866 whole entry): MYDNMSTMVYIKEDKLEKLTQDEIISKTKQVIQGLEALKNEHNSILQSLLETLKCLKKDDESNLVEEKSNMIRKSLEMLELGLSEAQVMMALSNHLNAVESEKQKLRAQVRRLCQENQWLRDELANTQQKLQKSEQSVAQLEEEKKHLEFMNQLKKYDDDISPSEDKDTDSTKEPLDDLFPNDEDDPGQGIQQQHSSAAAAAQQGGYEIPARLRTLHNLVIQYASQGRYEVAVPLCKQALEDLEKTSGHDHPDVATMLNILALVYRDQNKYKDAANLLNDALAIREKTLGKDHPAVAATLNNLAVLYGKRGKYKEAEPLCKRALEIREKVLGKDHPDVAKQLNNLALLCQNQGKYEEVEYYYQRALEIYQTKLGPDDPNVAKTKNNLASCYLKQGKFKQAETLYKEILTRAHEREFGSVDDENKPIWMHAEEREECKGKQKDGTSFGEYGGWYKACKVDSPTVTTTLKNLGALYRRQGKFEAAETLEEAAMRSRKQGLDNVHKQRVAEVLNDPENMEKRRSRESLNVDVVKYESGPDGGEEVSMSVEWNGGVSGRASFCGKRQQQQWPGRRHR

Substance: SFPQ (from UniProt P23246)
- Kd: 3.8 µM
